Measurements taken from article PMC6131548.

Target: Tsr2 (in the ITC with yeast ESS2) (S. cerevisiae (yeast)) (UniProt Q06672)
Experiment: ITC; VP-ITC; 20–40 µM Tsr2 variant in the cell, 400–800 µM ESS2 peptide in the syringe; 25 °C, 20 mM NaPi pH 7.1, 1 mM DTT, 10 µM EDTA

B1: ESS2 peptide (peptide)
peptide: RPRFNRENKVSPADAAKKAL
Kd: 700 nM
stoichiometry N: 1
